T1: Flag-hCRY1 (human, UniProt Q16526 1-586)
T1 construct: this is the CRY1 form; not shown: Flag tag
T1 sequence (looked up): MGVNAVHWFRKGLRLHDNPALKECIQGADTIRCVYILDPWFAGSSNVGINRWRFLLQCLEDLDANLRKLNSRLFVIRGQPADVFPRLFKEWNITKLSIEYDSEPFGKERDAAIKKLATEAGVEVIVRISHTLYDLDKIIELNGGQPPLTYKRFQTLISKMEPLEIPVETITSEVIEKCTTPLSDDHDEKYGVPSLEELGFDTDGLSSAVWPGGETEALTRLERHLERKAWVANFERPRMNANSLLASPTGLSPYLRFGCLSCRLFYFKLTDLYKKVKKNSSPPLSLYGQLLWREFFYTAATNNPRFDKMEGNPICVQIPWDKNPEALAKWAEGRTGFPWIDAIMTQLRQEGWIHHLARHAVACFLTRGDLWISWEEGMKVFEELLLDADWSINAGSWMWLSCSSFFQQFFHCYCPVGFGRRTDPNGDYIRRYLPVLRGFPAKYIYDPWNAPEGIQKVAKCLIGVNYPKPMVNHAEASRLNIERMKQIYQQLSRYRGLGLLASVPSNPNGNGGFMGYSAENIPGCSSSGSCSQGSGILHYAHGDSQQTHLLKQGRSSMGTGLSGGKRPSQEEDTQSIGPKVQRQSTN

B1: Myc-CRY2 (other)
chain: MKMDKKTIVWFRRDLRIEDNPALAAAAHEGSVFPVFIWCPEEEGQFYPGRASRWWMKQSLAHLSQSLKALGSDLTLIKTHNTISAILDCIRVTGATKVVFNHLYDPVSLVRDHTVKEKLVERGISVQSYNGDLLYEPWEIYCEKGKPFTSFNSYWKKCLDMSIESVMLPPPWRLMPITAAAEAIWACSIEELGLENEAEKPSNALLTRAWSPGWSNADKLLNEFIEKQLIDYAKNSKKVVGNSTSLLSPYLHFGEISVRHVFQCARMKQIIWARDKNSEGEESADLFLRGIGLREYSRYICFNFPFTHEQSLLSHLRFFPWDADVDKFKAWRQGRTGYPLVDAGMRELWATGWMHNRIRVIVSSFAVKFLLLPWKWGMKYFWDTLLDADLECDILGWQYISGSIPDGHELDRLDNPALQGAKYDPEGEYIRQWLPELARLPTEWIHHPWDAPLTVLKASGVELGTNYAKPIVDIDTARELLAKAISRTREAQIMIGAAPDEIVADSFEALGANTIKEPGLCPSVSSNDQQVPSAVRYNGSKRVKPEEEEERDMKKSRGFDERELFSTAESSSSSSVFFVSQSCSLASEGKNLEGIQDSSDQITTSLGKNGCK
notes: not shown: Myc tag
B2: GFP-BIC1 (other)
chain: MMNIDDTTSPMAHPIGPSQPPSDQTKQDPPSLPQEAASSVSADKKDLALLEEKPKQSQEEDRVDTGRERLKKHRREIAGRVWIPEIWGQEELLKDWIDCSTFDTCLVPAGISSARTALVEEARRAASASGGLHNRCLILR
notes: Expressed in HEK293T cells; not shown: GFP
B3: Blue-light Inhibitor of Cryptochromes 1 (BIC1) (other)
chain: B2 chain
notes: also called Arabidopsis BIC1; AT3G52740
B4: Blue-light Inhibitor of Cryptochromes 2 (BIC2) (other)
chain: MKNTNLPEETKEPISPGSSHRKQNKTGTKTCFPETTVLSGRDRLKRHREEVAGKVPIPDSWGKEGLLMGWMDFSTFDAAFTSSQIVSARAALMADSGDDAGARGSRPQRLRVESSC
notes: also called Arabidopsis BIC2; AT3G44450
B5: Arabidopsis cryptochrome 2 (CRY2) (receptor)
chain: B1 chain
notes: also called AT1G04400
B6: human cryptochrome 1 (hCRY1) (other, UniProt Q16526 1-586, looked up)
chain: T1 sequence (looked up)
notes: Homodimerization tested with differently tagged copies (Flag-hCRY and Myc-hCRY) co-expressed in HEK293T cells; also called human CRY1
B7: nYFP-CRY2 (N terminus of YFP fused to CRY2) (other)
chain: B1 chain
notes: BiFC construct in Arabidopsis protoplasts; not shown: N terminus of YFP

How the values were obtained:
[1] = target: FLUC-CRY2 (Arabidopsis) (UniProt Q96524); assay: quantitative co-IP (dual-luciferase), anti-Flag beads, HEK293T cells, blue light 30 µmol m^-2 s^-1
[2] = target: T2, GFP-CRY2 (CRY2 fused to green fluorescent protein) (Arabidopsis, UniProt Q96524 1-612); assay: co-IP with GFP-Trap-A from etiolated seedlings co-expressing Myc-CRY2 and GFP-CRY2, blue light 20 sec to 10 min (FIG. 9A)
T2 construct: Expressed in Arabidopsis plants together with Myc-CRY2; not shown: green fluorescent protein
Text: GFP-Trap-A were used to immunoprecipitate GFP-CRY2. GFP-CRY2 (IP signal) and Myc-CRY2 (co-IP signal) were detected by GFP or Myc antibody, respectively. […] HEK293T cells co-expressing FLUC-CRY2 and REN-CRY2 were exposed to blue light (30 μmol·m⁻²·s⁻¹) for the time indicated, lysed, aliquots removed for the measurement of ATL (Adjusted Total Luminescence), and FLUC-CRY2 precipitated by anti-Flag antibody conjugated beads. Photodimerization of CRY2 was quantified by the dual-luciferase assay to calculate the Normalized Dimerization Ratio (NDR) by the formula: NDR=[(REN/LUC)L/(REN/LUC)D]/ATL, where LUC is the LUC luminescence detected for the precipitated FLUC-CRY2, REN is the REN luminescence detected for the co-precipitated REN-CRY2. (REN/LUC)L or (REN/LUC)D were measured in cells exposed to light or darkness, respectively. ATL (Adjusted Total Luminescence) is the cell volume-adjusted sum of LUC and REN luminescence of the cell lysates before immunoprecipitation, in which REN luminescence is converted to the LUC equivalent by the standard curve prepared by analyses of the LUC-REN fusion protein (not shown). ATL represents concentration of the CRY2 protein. […] Flag-CRY2 (IP signal) and Myc-CRY2 or GFP-BIC1 (co-IP signals) were detected by Flag and Myc or GFP antibody, respectively. […]

[3] = target: T3, Flag-CRY2 (Arabidopsis, UniProt Q96524 1-612); assay: co-IP with antibody to Flag, HEK293T cells, dark
T3 construct: not shown: Flag tag
Text: Homodimers are the physiologically active form of plant CRYs (8, 9), but the effect of light on CRY dimerization has not been detected in previous studies (9, 20). This could be explained by, among other interpretations, light-independent CRY dimerization or masking effects of regulatory proteins, such as BICs, on the light-dependent CRY dimerization (9, 20). We reexamined the bluelight dependence of CRY2 dimerization using multiple approaches. In the first experiment, we coexpressed Flag-CRY2 and Myc-CRY2 in HEK293T cells (21-24) and tested the interaction between the two differentially tagged CRY2s by co-IP assay. In the absence of blue light, antibody to Flag coprecipitated little Myc-CRY2 from HEK293T cells expressing similar amounts of Flag-CRY2 and Myc-CRY2 (FIG. 4B and FIG. S12A of Wang et al).

[4] = target: T1, Flag-hCRY1; assay: co-IP with anti-Flag beads, HEK293T cells (FIG. 11)
Experimental: In FIG. 11, HEK293T cells coexpressing Flag-hCRY, Myc-hCRY and GFP-BIC1 or GFP were exposed to 100 μmol m⁻² s⁻¹ blue light for 2 hours (+) or kept in the dark (−). Anti-Flag antibody conjugated beads were used to perform the immunoprecipitations. Flag-hCRY (IP signal) and Myc-hCRY or GFP-BIC1 (co-IP signals) were detected by Flag and Myc or GFP antibody, respectively. […]

[5] = target: B5; assay: summary of the examples
[6] = target: the molecule itself; assay: yeast β-gal assay (FIG. 4A); also immunoblots of HEK293FT lysates (4B, 4C) and plant nuclear proteins (4D, 4E) after blue light
Text: FIG. 4 provides data showing redox-dependent CRY dimerization, and blue-light-induced CRY and BIC interaction. (FIG. 4A) The β-galactosidase (β-gal) assay showing the blue-light-dependent formation of CRY2 dimer. Yeast cells were kept in darkness (D) or illuminated with blue light (B5, 5 μmol m⁻² s⁻¹; B25, 25 μmol m⁻² s⁻¹; B50, 50 μmol m⁻² s⁻¹) for the indicated time. (FIG. 4B) Immunoblot showing the blue-light-induced dimerization of CRY2 expressed in HEK293FT (H293) cells. The cells were lysed, divided into 12 samples and irradiated by blue light (40 μmol m⁻²s⁻¹) for the indicated durations. For β-mercaptoethanol (2-Me) treatment, 6 samples were added with 2-Me to 5% (v/v), and then all the samples were analyzed by western blot using anti-CRY2 antibody. CRY2, monomeric CRY2; (CRY2)2, CRY2 dimer; (CRY2)ₙ, CRY2 oligomer. (FIG. 4C) The H293 cell lysate were prepared in dark, irradiated with blue light for the durations indicated. For the NEM treatment, the samples were added with NEM (50 mM), and then the samples were analyzed by western blot using anti-CRY2 antibody. (FIGS. 4D and E) Dimerization and oligomerization of CRY2 proteins are blue light-induced in vivo. […]

[7] = target: the molecule itself; assay: co-IP, HEK293T cells, control experiment
[8] = target: T4, cCFP-CRY2 (C terminus of cyan fluorescent protein fused to CRY2) (Arabidopsis, UniProt Q96524 1-612); assay: BiFC in Arabidopsis protoplasts
T4 construct: BiFC construct in Arabidopsis protoplasts; not shown: C terminus of cyan fluorescent protein

Molecule: REN-CRY2
- Maximum Photodimerization (Dm, maximum Normalized Dimerization Ratio) [1]: 4.7
- Rate of Photodimerization (D1/2) [1]: 1 min

Molecule: B1
- binding result [2]: binds
- binding result [3]: binds

Molecule: B2
- binding result [4]: binds

Molecule: B3
- binding result [5]: binds

Molecule: B4
- binding result [5]: binds

Molecule: B5
- binding result [6]: binds

Molecule: B6
- binding result [7]: binds

Molecule: B7
- binding result [8]: binds
